{"source": "paper PMC2132943", "target": "CCR5 chemokine receptor (human) (UniProt P51681)", "assay": "cross-linking", "data": [{"substance": "CCR5 chemokine receptor, P51681 1-352 (receptor; other documents disagree on this pair)", "values": [{"measurement": "stoichiometry N", "result": 2}]}]}
